Values of other authors in paper PMC8152036.

Tests used:
Assay in all cases: SPR
[1] = molecular target: RNase Y (Bacillus subtilis) (UniProt O31774)
PfkA (Bacillus subtilis) = PfkA (Bacillus subtilis) (UniProt O34529)
[2] = molecular target: RNase J1 (Bacillus subtilis) (UniProt Q45493)
UniProt Q45493, sequence (Q45493 whole entry): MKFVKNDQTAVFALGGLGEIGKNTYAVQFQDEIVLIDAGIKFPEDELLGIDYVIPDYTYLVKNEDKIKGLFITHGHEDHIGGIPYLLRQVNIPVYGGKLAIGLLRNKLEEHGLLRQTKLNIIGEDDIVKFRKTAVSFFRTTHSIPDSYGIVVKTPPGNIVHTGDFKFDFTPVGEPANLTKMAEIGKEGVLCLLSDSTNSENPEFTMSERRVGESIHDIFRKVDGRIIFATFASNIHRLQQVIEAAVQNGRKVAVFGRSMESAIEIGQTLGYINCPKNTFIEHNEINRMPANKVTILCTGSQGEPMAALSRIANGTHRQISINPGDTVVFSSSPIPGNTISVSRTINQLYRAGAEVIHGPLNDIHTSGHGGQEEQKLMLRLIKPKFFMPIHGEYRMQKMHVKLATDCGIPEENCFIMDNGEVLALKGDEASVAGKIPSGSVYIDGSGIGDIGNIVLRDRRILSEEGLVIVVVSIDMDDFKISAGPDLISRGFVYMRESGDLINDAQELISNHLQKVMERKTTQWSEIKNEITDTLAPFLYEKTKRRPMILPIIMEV

UniProt O31774, sequence (O31774 whole entry): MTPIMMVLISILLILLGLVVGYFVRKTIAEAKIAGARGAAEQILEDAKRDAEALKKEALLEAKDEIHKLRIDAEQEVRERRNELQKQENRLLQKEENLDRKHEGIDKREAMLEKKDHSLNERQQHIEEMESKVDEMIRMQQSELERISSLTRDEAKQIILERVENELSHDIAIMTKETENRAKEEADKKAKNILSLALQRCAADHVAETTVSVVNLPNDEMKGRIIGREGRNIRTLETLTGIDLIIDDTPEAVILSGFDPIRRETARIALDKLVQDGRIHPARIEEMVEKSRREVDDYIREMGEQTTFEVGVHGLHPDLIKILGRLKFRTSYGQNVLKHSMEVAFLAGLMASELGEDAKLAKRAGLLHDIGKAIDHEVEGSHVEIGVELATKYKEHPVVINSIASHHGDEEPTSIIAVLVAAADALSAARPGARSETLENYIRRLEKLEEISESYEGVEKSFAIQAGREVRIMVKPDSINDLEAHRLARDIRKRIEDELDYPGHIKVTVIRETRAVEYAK
UniProt O34529, sequence (O34529 whole entry): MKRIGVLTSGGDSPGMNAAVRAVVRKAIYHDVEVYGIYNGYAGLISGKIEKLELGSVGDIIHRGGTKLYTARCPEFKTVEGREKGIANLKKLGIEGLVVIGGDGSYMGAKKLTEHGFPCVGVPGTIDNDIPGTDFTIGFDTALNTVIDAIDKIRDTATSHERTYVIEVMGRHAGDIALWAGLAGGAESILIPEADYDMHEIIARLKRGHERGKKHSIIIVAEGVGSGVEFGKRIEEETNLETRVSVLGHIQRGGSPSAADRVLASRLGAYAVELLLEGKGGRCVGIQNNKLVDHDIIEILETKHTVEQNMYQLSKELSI

Kd [1]	Kd (PfkA (Bacillus subtilis))	Kd [2]	Substance
100 nM	40 nM	–	Enolase (from UniProt P37869)
5 nM	–	250 nM	PNPase (from UniProt P50849)
